Where a chain is given by its changes, count along the chain named.
B1: COVID19_P01_H05 (scFv, V domains shown)
VH: QVQLVQSGAEVKKPGSSVKVSCKASGGTFSNFALTWVRQAPGQGLEWMGLINPSGGSTSYAQRFQGRVTITADESTSTAYMELSSLRSEDTAVYYCARDSVMGGMDVWGQGTLVTVSS
VL: SSYVLTQPPSVSVAPGKTARITCGGNNIGSKSVHWYQQKPGQAPVLVIYYDSDRPSGIPERFSGSNSGNTATLTISRVEAGDEADYYCQVWASSSDYVFGGGTKLTVLA
B2: COVID19_P13_H07 (scFv, V domains shown)
VH: QVQLVQSGAEVKKPGSSVKVSCKASGYTFINYDINWVRQAPGQGLEWMGGITPIFGTAKYAQKFQGRVTITADESTSTAYMELSSLRSEDTAVYYCARDTVMGGMDVWGQGTLVTVSS
VL: B1 VL with A92D

Experiments:
[1] = target: SARS-CoV-2 spike protein (on pseudovirus) (SARS-CoV-2, UniProt P0DTC2 14-1273); experiment: cell-based or functional assay
[2] = target: T1, SARS-CoV-2 Receptor Binding Domain (RBD) protein (SARS-CoV-2, UniProt P0DTC2 319-541); experiment: SPR (Carterra LSA)
T1 construct: also called Sars-Cov-2 (COV2)

[3] = target: T1, SARS-CoV-2 Receptor Binding Domain …; experiment: SPR (Carterra LSA); scFv captured by anti-V5, RBD as analyte

Row | Binder | IC50 [µg/mL] pseudotyped lenti neutralization [1] [µg/mL] | Kd [2] [nM] | Kd [3] [nM] | koff [3] [s⁻¹] | kon [3] [M⁻¹ s⁻¹]
1 | B1 | 35 | < 50 | 1.11 | 0.000468 | 423000
2 | B2 | 15 | < 50 | 1.92 | 0.00031 | 160000
